# Measurements published in PMC7016264, “Redox requirements for ubiquitin-like urmylation of Ahp1, a 2-Cys peroxiredoxin from yeast” (Redox Biology, 2020).
# B1: His-tagged Ahp1, wild-type (recombinant) [S. cerevisiae] / itself (parent)
# chain: MSDLVNKKFPAGDYKFQYIAISQSDADSESCKMPQTVEWSKLISENKKVIITGAPAAFSPTCTVSHIPGYINYLDELVKEKEVDQVIVVTVDNPFANQAWAKSLGVKDTTHIKFASDPGCAFTKSIGFELAVGDGVYWSGRWAMVVENGIVTYAAKETNPGTDVTVSSVESVLAHL
# Variants of: B1
# Assay: SEC-MALS
# Conditions: with itself
row,screen value [kDa],Variant
1,22.8,chain 1 F58A
2,20.4,chain 1 F58A F95A
3,31.6,chain 1 F95A
